# How the values were obtained:
# cSNK:BSA conjugate [1] = biological target: T1, cSNK:BSA conjugate (bovine, head-to-tail cyclized; conjugated to BSA carrier); test: BLI (Octet), KD1
# T1 construct: also called BSA-cSNK
# cSNK:BSA conjugate [2] = biological target: T1, cSNK:BSA conjugate; test: BLI (Octet), KD2
# T1 sequence (P02769 25-607 limits assumed): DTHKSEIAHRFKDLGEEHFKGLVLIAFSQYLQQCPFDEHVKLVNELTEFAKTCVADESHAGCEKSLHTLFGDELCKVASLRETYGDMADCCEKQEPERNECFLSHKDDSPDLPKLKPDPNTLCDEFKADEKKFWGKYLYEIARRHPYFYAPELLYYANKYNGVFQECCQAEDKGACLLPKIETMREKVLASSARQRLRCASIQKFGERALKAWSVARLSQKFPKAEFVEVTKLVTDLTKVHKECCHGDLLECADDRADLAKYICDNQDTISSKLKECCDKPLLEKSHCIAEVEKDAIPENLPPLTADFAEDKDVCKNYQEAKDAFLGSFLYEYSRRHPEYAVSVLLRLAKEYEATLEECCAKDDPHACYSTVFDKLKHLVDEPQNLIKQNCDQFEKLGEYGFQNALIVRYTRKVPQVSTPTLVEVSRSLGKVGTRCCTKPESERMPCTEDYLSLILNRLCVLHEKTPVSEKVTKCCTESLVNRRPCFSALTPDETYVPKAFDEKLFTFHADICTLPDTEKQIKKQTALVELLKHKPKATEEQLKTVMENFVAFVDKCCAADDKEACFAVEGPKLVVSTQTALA
Kd (cSNK:BSA conjugate [1]),Kd (cSNK:BSA conjugate [2]),Binder
0.214 nM,3.41 nM,"5E3HCDR1-S184D (antibody, V domains shown, hu5E3 IgG1 vector mutant; also called 5E3-S184D-AFF) VH: QVQLQQSGPEVKKPGASVKISCKASGYIFTDYYIQWVIHAPGQGLEWIGWIYPGNVNTKYNEKFKGKATLTADKSSSTAYMELSSLTSEDTAVYFCARMDYEAHYWGQGTTVTVSS VL: DIQMTQSPSSLSASVGDRVTITCRASQEISGYLTWLQQKPEGAIKRLIYAASTLDSGVPKRFSGSRSGSDYSLTISSLQPEDFATYNCLQYANYPRTFGGGTKLEIK"
0.0171 nM,2.36 nM,"5E3HCDR2-K212D (antibody, IgG1, V domains shown, hu5E3 IgG1 vector mutant; also called 5E3-K212D-AFF) VH: QVQLQQSGPEVKKPGASVKISCKASGYIFTSYYIQWVIHAPGQGLEWIGWIYPGNVNTDYNEKFKGKATLTADKSSSTAYMELSSLTSEDTAVYFCARMDYEAHYWGQGTTVTVSS VL: DIQMTQSPSSLSASVGDRVTITCRASQEISGYLTWLQQKPEGAIKRLIYAASTLDSGVPKRFSGSRSGSDYSLTISSLQPEDFATYNCLQYANYPRTFGGGTKLEIK"
0.0107 nM,2.4 nM,"5E3HCDR2-V209Y (antibody, IgG1, V domains shown, hu5E3 IgG1 vector mutant) VH: QVQLQQSGPEVKKPGASVKISCKASGYIFTSYYIQWVIHAPGQGLEWIGWIYPGNYNTKYNEKFKGKATLTADKSSSTAYMELSSLTSEDTAVYFCARMDYEAHYWGQGTTVTVSS VL: DIQMTQSPSSLSASVGDRVTITCRASQEISGYLTWLQQKPEGAIKRLIYAASTLDSGVPKRFSGSRSGSDYSLTISSLQPEDFATYNCLQYANYPRTFGGGTKLEIK"
1.73 nM,9.97 nM,"5E3HCDR3-A210G (antibody, IgG1, V domains shown, hu5E3 IgG1 vector mutant) VH: QVQLQQSGPEVKKPGASVKISCKASGYIFTSYYIQWVIHAPGQGLEWIGWIYPGNVNTKYNEKFKGKATLTADKSSSTAYMELSSLTSEDTAVYFCARMDYEGHYWGQGTTVTVSS VL: DIQMTQSPSSLSASVGDRVTITCRASQEISGYLTWLQQKPEGAIKRLIYAASTLDSGVPKRFSGSRSGSDYSLTISSLQPEDFATYNCLQYANYPRTFGGGTKLEIK"
3.21 nM,9.13 nM,"5E3HCDR3-E209D (antibody, IgG1, V domains shown, hu5E3 IgG1 vector mutant; same change as 5E3HCDR3-E255D) VH: QVQLQQSGPEVKKPGASVKISCKASGYIFTSYYIQWVIHAPGQGLEWIGWIYPGNVNTKYNEKFKGKATLTADKSSSTAYMELSSLTSEDTAVYFCARMDYDAHYWGQGTTVTVSS VL: DIQMTQSPSSLSASVGDRVTITCRASQEISGYLTWLQQKPEGAIKRLIYAASTLDSGVPKRFSGSRSGSDYSLTISSLQPEDFATYNCLQYANYPRTFGGGTKLEIK"
1.86 nM,6.05 nM,"5E3HCDR3-E209Q (antibody, IgG1, V domains shown, hu5E3 IgG1 vector mutant) VH: QVQLQQSGPEVKKPGASVKISCKASGYIFTSYYIQWVIHAPGQGLEWIGWIYPGNVNTKYNEKFKGKATLTADKSSSTAYMELSSLTSEDTAVYFCARMDYQAHYWGQGTTVTVSS VL: DIQMTQSPSSLSASVGDRVTITCRASQEISGYLTWLQQKPEGAIKRLIYAASTLDSGVPKRFSGSRSGSDYSLTISSLQPEDFATYNCLQYANYPRTFGGGTKLEIK"
0.0333 nM,2.57 nM,"5E3HCDR3-E255D (antibody, IgG1, V domains shown, hu5E3 IgG1 vector mutant; same change as 5E3HCDR3-E209D; also called 5E3-E255D-AFF) VH: QVQLQQSGPEVKKPGASVKISCKASGYIFTSYYIQWVIHAPGQGLEWIGWIYPGNVNTKYNEKFKGKATLTADKSSSTAYMELSSLTSEDTAVYFCARMDYDAHYWGQGTTVTVSS VL: DIQMTQSPSSLSASVGDRVTITCRASQEISGYLTWLQQKPEGAIKRLIYAASTLDSGVPKRFSGSRSGSDYSLTISSLQPEDFATYNCLQYANYPRTFGGGTKLEIK"
19.8 nM,–,"5E3KCDR3-L89I + 5E3HCDR3-E209Q (antibody, IgG1, V domains shown, double combination in hu5E3 IgG1) VH: QVQLQQSGPEVKKPGASVKISCKASGYIFTSYYIQWVIHAPGQGLEWIGWIYPGNVNTKYNEKFKGKATLTADKSSSTAYMELSSLTSEDTAVYFCARMDYQAHYWGQGTTVTVSS VL: DIQMTQSPSSLSASVGDRVTITCRASQEISGYLTWLQQKPEGAIKRLIYAASTLDSGVPKRFSGSRSGSDYSLTISSLQPEDFATYNCIQYANYPRTFGGGTKLEIK"

# Reference: patent publication US20170008955A1 (CNJ, published 2017)
